Laboratory results from paper PMC6294567, “The C-terminal D/E-rich domain of MBD3 is a putative Z-DNA mimic that competes for Zα DNA-binding activity” (Nucleic Acids Research, 2018).
“And” between values parts separate entries of the source, which are not always exact repeats. Equal values may be shown once. Primed or numbered codes have the meaning given here. Where no end group is shown, it is not given here. FITC′ = fluorescein isothiocyanate label

Experiments:
[1] = target: T1, Zα and 6-FAM-d(CG)6 duplex (Homo sapiens, UniProt P55265); assay: FP competition: displacement of Zα binding to 6-FAM-d(CG)6
T1 construct: Zα of human ADAR1; residues 133–209; His6 (pMCSG7, followed by a TEV site) (N, cleaved yes); made in house; host or cells: E. coli BL21(DE3)
T1 sequence (P55265 133-209): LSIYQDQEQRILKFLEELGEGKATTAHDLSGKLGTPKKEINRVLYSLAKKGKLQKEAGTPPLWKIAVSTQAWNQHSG

[2] = target: MBDDE (MBD domain of MBD3 connected to the acidic tail; residues 263–291), tag-free (human) (UniProt O95983); assay: SEC; Zα (400 μM) and MBDDE (100 μM), or Zα and MBD under the same conditions, 4:1 molar ratio; 20 mM Tris-HCl pH 7.5, 50 mM NaCl, 1 mM TCEP; Superdex 75 10/300 GL; fractions on SDS-PAGE
[3] = target: Zα, tag-free (Z-DNA binding domain of human ADAR1, residues 133-209) (human) (UniProt P55265); assay: fluorescence polarisation; competition: unlabelled peptide added to the pre-incubated mixture of Zα and 6-FAM-d(CG)6 duplex; 20 mM HEPES-NaOH pH 7.5, 50 mM NaCl, 1 mM DTT; dose-response (variable slope) model
[4] = target: T2, Zα, tag-free (Z-DNA binding domain of human ADAR1, residues 133-209) (human, UniProt P55265 133-209); assay: fluorescence polarisation; FITC-labelled D/E-rich peptide against titrated protein; 20 mM HEPES-NaOH pH 7.5, 50 mM NaCl, 1 mM DTT; one-site total binding model; conditions: both partners purified
T2 construct: Zα domain of human ADAR1, residues 133-209; from pMCSG7-Zα; source: E. coli BL21(DE3), purified (Ni-NTA, TEV cleavage, reverse Ni-NTA, gel filtration); not shown: His6, N-terminal, cleaved
T2 sequence (looked up): T1 sequence (P55265 133-209)

Sso7d = target: T3, Sso7d (UniProt P39476 1-64); assay: as above; conditions: both partners purified
T3 sequence (looked up): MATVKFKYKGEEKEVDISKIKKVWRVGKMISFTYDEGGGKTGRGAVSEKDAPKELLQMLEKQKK

[5] = target: T4, MBD domain of MBD3 (residues 1–72), tag-free (human, UniProt O95983-1 1-72); assay: FP
T4 chain: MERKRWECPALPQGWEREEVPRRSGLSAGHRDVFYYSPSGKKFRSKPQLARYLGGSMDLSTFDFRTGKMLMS

[6] = target: T5, MBD3 (full-length human MBD3; residue 1–291), tag-free (human), O95983; assay: SEC; purified MBD3 alone on Superdex 200 increase 10/300 GL against protein standards; conditions: remark: other sources report otherwise
T5 chain: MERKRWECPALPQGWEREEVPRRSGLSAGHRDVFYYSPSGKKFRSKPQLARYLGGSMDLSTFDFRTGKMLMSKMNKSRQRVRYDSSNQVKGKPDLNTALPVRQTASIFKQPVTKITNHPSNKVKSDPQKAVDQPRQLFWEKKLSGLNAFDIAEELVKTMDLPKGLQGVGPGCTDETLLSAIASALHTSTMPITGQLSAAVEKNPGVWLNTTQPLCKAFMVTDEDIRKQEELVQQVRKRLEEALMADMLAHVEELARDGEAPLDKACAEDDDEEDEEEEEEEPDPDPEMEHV

endogenous ADAR1 = assay: FLAG immunoprecipitation of endogenous ADAR1 in 293F cells; assay type: cell-based, human; conditions: anti-ADAR1 western blot
Method: For expressing FLAG-MBD3 and its mutants in 293F cells (Freestyle™ 293 Expression System; Invitrogen), the DNA fragments were PCR amplified and inserted into HindIII site of pFLAG-CMV-2 vector (Sigma-Aldrich). The plasmids were purified by EasyPrep EndoFree Maxi Plasmid Extraction Kit (BIOTOOLS Co., Ltd, Taiwan) and transiently transfected into 293F cells using 293fectin (Invitrogen) according to the manufacturer's guidelines.
After 48 h posttransfection, the cells were washed with cold PBS and lysed with lysis buffer [50 mM Tris–HCl pH 7.5, 0.3% NP-40, 100 mM potassium acetate, 10% glycerol, 50 U/ml Benzonaes (Novagen) and EDTA-free protease inhibitor cocktail tablet (Roche)]. The lysates were incubated with anti-FLAG M2 Affinity Gel (A2220; Sigma-Aldrich) on a rotation at 4°C overnight. […] The immunoprecipitates were eluted by FLAG peptide (F4799; Sigma-Aldrich) and resolved by a NuPAGE 12% Bis–Tris gel (Invotrogen). Specific antibodies used for western blotting were Rabbit anti-FLAG (1:5000; F7425; Sigma-Aldrich) and rabbit anti-ADAR1 D7E2M (1:1000; 14175; Cell Signaling Technology).

Zα = target: T6, Zα (Homo sapiens, UniProt P55265); assay: SEC / SDS-PAGE complex formation with Zα; assay type: binding
T6 construct: Zα of human ADAR1; residues 133–209; His6 (pMCSG7, followed by a TEV site) (N, cleaved yes); made in house; host or cells: E. coli BL21(DE3)
T6 sequence (P55265 133-209): T1 sequence (P55265 133-209)
Method: Equimolar amounts (0.1 mM) of Zα and DE-rich peptide were incubated on ice for 1 h in a buffer containing 20 mM HEPES–NaOH pH 7.5, 50 mM NaCl, 1 mM DTT. The mixture was then loaded on a Superdex 30 16/600 column (GE Healthcare) equilibrated in the same buffer. The fractions from the peaks corresponding to Zα alone and the complex of Zα and DE-rich peptide were collected and used for chemical cross-linking.
To analyze complex formation of Zα and other proteins (MBD3, MBD or MBDDE), the mixtures were incubated on ice for 1 h in a buffer containing 20 mM Tris–HCl pH 7.5, 50 mM NaCl, 1 mM TCEP. The mixture was then loaded on a Superdex 75 or Superdex 200 increase 10/300 column (GE Healthcare).

d(CG)6 duplex = assay: Circular dichroism of d(CG)6 DNA conformation
Method: CD spectra were measured at 24°C on a J-815 Spectrometer (JASCO) using a 1 mm path length quartz cell. Prepare 7.5 μM DNA duplex in a buffer consisting of 5 mM HEPES–NaOH pH 7.5, 25 mM NaCl and 1 mM DTT, and in the absence or presence of indicated concentration of proteins. Spectra were recorded between 235 and 305 nm wavelength with a data pitch of 1 nm, bandwidth of 1 nm and with two accumulations at a scanning speed of 10 nm/min.
Figure 6. Zα can compete with the MBD domain for binding to d(CG)6, but not vice versa. (A) CD spectra of the d(CG)6 duplex in the presence of Zα. CD spectra of (B) the d(CG)6 and (C) the d(C^mG)6 duplex, respectively, in the presence of the MBD domain. (D) Monitoring of the change in CD spectra with the addition of increased amounts of Zα to the pre-incubated mixture of the MBD domain and d(CG)6. (E) Monitoring of the change in CD spectra with the addition of increased amount of the MBD domain to the pre-incubated mixture of Zα and d(CG)6. Spectra are expressed in absolute values of ellipticity in millidegrees (mdeg).

[7] = target: T7, Zα, tag-free (Z-DNA binding domain of human ADAR1, residues 133-209) (human), P55265; assay: fluorescence polarisation; competition: unlabelled peptide added to the pre-incubated mixture of Zα and 6-FAM-d(CG)6 duplex; 20 mM HEPES-NaOH pH 7.5, 50 mM NaCl, 1 mM DTT; dose-response (variable slope) model
T7 chain: T1 sequence (P55265 133-209)

[8] = target: the molecule itself; assay: SEC; purified MBDDE or MBD alone on Superdex 75 10/300 GL against protein standards
[9] = Stability of E. coli-expressed protein; assay type: physicochemical; conditions: recombinant E. coli-expressed protein

With poly-L-glutamic acid [polyE] the “competition with d(CG)6 for binding to Zα (in words)” value ([1]; 6-FAM-d(CG)6) was “could compete with Zα binding to d(CG)6, although the efficiency was lower than full-length D/E-rich peptide” and the “concentration at 50% displacement (IC50)” value ([1]; pre-incubated Zα and 6-FAM-d(CG)6, triplicate, 95% CI 3.4–8.9 μg/ml) was 5.5 µg/mL.

With “Zα, tag-free (Z-DNA binding domain of human ADAR1, residues 133-209) (from UniProt P55265 133-209) (domain or fragment)” the stoichiometry N [2] was 1 Zα per MBDDE and 2 Zα per MBDDE.

Molecule “poly-L-glutamic acid (1500–5500 Da; Sigma) peptide” has an IC50 [3] of 1000 to 3700 nM.

In the case of {FITC′}-DKACAEDDDEEDEEEEEEEPDPDP [D/E-rich peptide of MBD3, FITC-labelled], the Kd [4] is reported as 29.1 ± 1.7 nM, the Kd (Sso7d) is reported as 1100 ± 200 nM and the Kd [5] is reported as 21.2 nM.

B1: MBD3 (full-length human MBD3; residue 1–291), tag-free, O95983-1 1-291 (natural protein)
chain: T5 chain
B1 showed a stoichiometry N [6] of 2.

B2: FLAG-MBD3: FLAG-tagged full-length MBD3 transiently expressed in 293F cells (protein)
chain: T5 chain
modifications: left off: FLAG, end not stated, kept
notes: FLAG-tagged full-length MBD3 transiently expressed in 293F cells
With B2 the “co-immunoprecipitation of ADAR1-p110 (lacking Zα)” value (endogenous ADAR1; 293F cells, FLAG-IP) was “also pulled down” and the “co-immunoprecipitation of endogenous ADAR1” value (endogenous ADAR1; transient expression in 293F cells, anti-FLAG resin) was “endogenous ADAR1 was indeed pulled down”.

B3: MBD domain: MBD domain of MBD3; residues 1–72 (protein)
chain: T4 chain
modifications: left off: His6, N-terminal, cleaved
For B3, the “complex formation with Zα on SEC” value (Zα; Zα : MBD 4:1 molar ratio, Superdex 75 10/300 GL) was “no complex formation was detected”, the “DNA conformation after binding” value (d(CG)6 duplex; CD 235-305 nm, 24°C, 7.5 μM DNA duplex, 5 mM HEPES–NaOH pH 7.5, 25 mM NaCl, 1 mM DTT) was “kept the duplex DNA in B-form” and the “competition for binding to d(CG)6 (MBD domain added to pre-incubated Zα and d(CG)6)” value (d(CG)6 duplex; CD, increasing MBD domain) was “could not compete with the binding of Zα and Z-DNA”.

Work on DKACAEDDDEEDEEEEEEEPDPDP (modifications not checked) [D/E-rich peptide of MBD3, unlabelled (full-length D/E-rich peptide)] yielded an IC50 [7] of 164 nM.

B4: MBDDE (MBD domain of MBD3 connected to the acidic tail; residues 263–291), tag-free (domain or fragment, human, UniProt O95983-1 1-72, looked up)
chain: MERKRWECPALPQGWEREEVPRRSGLSAGHRDVFYYSPSGKKFRSKPQLARYLGGSMDLSTFDFRTGKMLMSDKACAEDDDEEDEEEEEEEPDPDPEMEHV
notes: MBD domain of human MBD3; its limits (1-72) are those printed for the MBD3MBD construct; No linker between the two stretches is mentioned; The protein was partly degraded from the C-terminal disordered region by mass spectrometry; source: E. coli BL21(DE3), purified (Ni-NTA, TEV cleavage, reverse Ni-NTA, gel filtration); not shown: His6, N-terminal, cleaved
For B4, the “stoichiometry N” value [8] was 2.

B5: MBDDE: MBD domain of MBD3 connected to the acidic tail; residues 263–291 (protein)
chain: B4 chain
modifications: left off: His6, N-terminal, cleaved
In the case of B5, the “efficiency of interaction with Zα relative to D/E peptide” value (Zα; SEC, Zα and MBDDE) is reported as “less efficiently than with D/E peptide”, the “complex formation with Zα on SEC” value (Zα; Zα 100 μM : protein 25 μM (4:1), ice 1 h, 20 mM Tris–HCl pH 7.5, 50 mM NaCl, 1 mM TCEP) is reported as “could not detect stable complex formation of Zα and MBDDE” and the “complex formation with Zα on SEC” value (Zα; Zα 400 μM : MBDDE 100 μM (4:1), ice 1 h, Superdex 75, pH 7.5) is reported as “a small amount of MBDDE and Zα complex was detected”. For the same molecule, the “protein stability (in words)” value [9] was “more sensitive to protease than the MBD domain”.
